Where a chain is given by its changes, count along the chain named. In names and notes the source's numbering stands.
B1: syt 1 C2AB T328A (domain or fragment)
chain: KGGKNAINMKDVKDLGKTMKDQALKDDDAETGLTDGEEKEEPKEEEKLGKLQYSLDYDFQNNQLLVGIIQAAELPALDMGGTSDPYVKVFLLPDKKKKFETKVHRKTLNPVFNEQFTFKVPYSELGGKTLVMAVYDFDRFSKHDIIGEFKVPMNTVDFGHVTEEWRDLQSAEKEEQEKLGDICFSLRYVPTAGKLTVVILEAKNLKKMDVGGLSDPYVKIHLMQNGKRLKKKKATIKKNTLNPYYNESFSFEVPFEQIQKVQVVVTVLDYDKIGKNDAIGKVFVGYNSTGAELRHWSDMLANPRRPIAQWHTLQVEEEVDAMLAVKK
B2: syt 1 C2AB K313R/K325R/K327R (domain or fragment)
chain: B1 chain with K219R, K231R, K233R, A234T
B3: syt 1 C2AB E341A (domain or fragment)
chain: B1 chain with A234T, E247A

target: t-SNARE heterodimer (mouse SNAP-25B and rat syntaxin 1A), reconstituted into vesicles (rat | mouse, UniProt P32851;P60879-1); assay: co-flotation
Sequence (P32851 whole entry, chain 1 of 2): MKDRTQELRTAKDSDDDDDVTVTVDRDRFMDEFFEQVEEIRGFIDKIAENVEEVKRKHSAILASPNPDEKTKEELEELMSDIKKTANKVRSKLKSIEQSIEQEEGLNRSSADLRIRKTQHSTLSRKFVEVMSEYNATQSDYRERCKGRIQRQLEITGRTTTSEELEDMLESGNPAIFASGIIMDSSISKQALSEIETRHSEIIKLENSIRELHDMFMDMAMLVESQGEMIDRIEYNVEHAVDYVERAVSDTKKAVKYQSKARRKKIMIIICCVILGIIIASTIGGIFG
Sequence (P60879 whole entry, chain 2 of 2): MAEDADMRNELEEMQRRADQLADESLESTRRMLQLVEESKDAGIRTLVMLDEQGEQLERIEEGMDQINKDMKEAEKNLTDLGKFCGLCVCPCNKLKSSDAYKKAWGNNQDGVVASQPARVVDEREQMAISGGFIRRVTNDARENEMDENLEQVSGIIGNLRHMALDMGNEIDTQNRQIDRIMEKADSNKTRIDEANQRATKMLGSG

Binder | binding result
B1 | binds
B2 | binds
B3 | binds

Reference: publication PMC2581593 (The Journal of Biological Chemistry, 2008)
